The values that follow are results of earlier work, collected in article PMC6258349.

Where two headings read alike, the source gives them in different places.

Data set [1] has as its target chaperone-adhesin FimC-FimH (Escherichia coli) (UniProt P31697).
For data set [2] the target is unchanged. The source holds these as a separate data set.

Sequence of UniProt P31697 (P31697 37-241, chain 1 of 2): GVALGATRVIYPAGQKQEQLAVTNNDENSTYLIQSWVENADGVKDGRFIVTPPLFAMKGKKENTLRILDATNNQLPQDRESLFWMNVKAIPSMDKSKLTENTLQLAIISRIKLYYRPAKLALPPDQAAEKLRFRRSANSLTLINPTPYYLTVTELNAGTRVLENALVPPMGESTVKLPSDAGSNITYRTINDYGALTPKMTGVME
Sequence of UniProt P31697 (P08191 22-300, chain 2 of 2, further chain): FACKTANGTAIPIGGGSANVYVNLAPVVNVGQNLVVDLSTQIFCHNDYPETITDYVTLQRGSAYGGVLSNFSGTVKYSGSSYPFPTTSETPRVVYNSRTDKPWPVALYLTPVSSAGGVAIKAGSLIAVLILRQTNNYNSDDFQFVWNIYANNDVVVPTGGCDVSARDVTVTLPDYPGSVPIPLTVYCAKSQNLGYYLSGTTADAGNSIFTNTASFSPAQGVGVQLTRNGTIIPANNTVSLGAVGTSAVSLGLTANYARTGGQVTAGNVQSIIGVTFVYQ

With FimD usher CTD (from UniProt P30130), the Kd in data set [1] is 0.04 µM. In the case of FimD usher NTD (from UniProt P30130), the Kd in data set [2] is 0.389 µM.
